# Results reported in the nanobody polyreactivity screen of Harvey et al. (2022).
# Assay: yeast display, Sf9 membrane polyspecificity reagent, FACS + sequencing; frameworks hold sequencing errors
# Summary of the method: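 In a synthetic yeast display library (Saccharomyces cerevisiae BJ5465), nanobody expression was induced with galactose for 36–48 hours. FACS gates were set low and high (top ~1%) using anti-HA fluorescence for expression and streptavidin fluorescence for binding of the Sf9 membrane reagent. Each polyreactivity label is drawn from the gate of origin.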
row,Sequence,polyreactivity (PSR sort gate)
1,QVQLVESGGGLVQAGGSLRLSCAASGSTFAPYAMGWYRQAPGKETELVARITGSGGGTTYADSVKGRFTISRDNAKNTVYLQMNSLKPEDTAVYYCAAPRASQYGDDYWGQGTQVTVSS,high polyreactivity
2,QVQLVESGGGLVQAGGSLRLSCAASGGIFGINAMGWYRQAPWKERELVSAINLSGGRTYYADSVKGRFTISRDNSKNTVYLHMNSLKPEDTAVYYCAAYYGYSLYGHYEYWGQGTQVTVSS,high polyreactivity
3,QVQLVESGGGLVQAGGSLRLSCAASGSTIFAYAMGWYRQAPGKERELVAAIRRGGTSTYYADSVKGRFTISRDNAKNTVYLQMNSLKPEDTAVYYCNKAYITKRGVSGSNDYWGQGTQVTVSS,low polyreactivity
4,HDQRVESGGGLVQAGGSLRLSCAASGITFASYAMGWYRQAPGKDRELVAAISWGGSRTYYADSVKGRFTISRDTAKISVYLQMNSLKPEDTAVYYCNAHTRYGPDYSYYYWGQGTQVTVSS,high polyreactivity
5,QVQLVESGGGLVQAGGSLRLSCAASGFTFDWNAMGWYRQAPGKERELVAAISSSTGRTYYADSVKGRFTISRDNAKNTVYLQMNSLKPEDTAVYYCAASLGGYGERYYYWGQGTQVTVSS,high polyreactivity
6,QVQLEESGGGLVQAGGNLRLSSAASGSIFSFNAMGCYRQAPGKERELVAAISWRGASTYYADSVKGRFTISRDNAKNTVYLQMNSLKPEDTAVYYCAAESTFILQYSYIYYDGHYDYCGQGTQVTVSS,low polyreactivity
7,QVQLVESGGGLVQAGGSLRLSCAASGRILGVNAMGWYRQAPGKERELVAAINWNGGSTYYADSVKGRFTISRDNAKNTVYLQMNSLKPEDTAVYYCAAERSLYYVYSREYWGQGTQVTVSS,low polyreactivity
8,QVQLVVSGGGLVQAGGSLRLSCSASGYTFWRYAMGWYRQAPGKERELVAAISQSGGRTYYADSVKGRYTISRDNAKNTVYLQMNSLKPEDTAVYFCATSYSQGDDYWGQGTQVTVSS,high polyreactivity
9,QVQLLESGGGLVQSGGSLRLTCAASGFTFRGYAMGWYRQAPGKERELVAAISWNGGRTYADSVKGRFTITRDNAKYTVYLQMNSLKPEDTAVYYCNAVKFGATAYDYWGQGTQVTVSS,high polyreactivity
10,QVQLVESGGGLVQAGGSLSLSCAASGSILYFNAMGWYRQAPGKERELVAAISRSGGSTYYADSVKGRFTISRDNAKNTVYIQMNSLKPEDTAVYSCAASYTVYYWGQGTQVTVTS,high polyreactivity
11,QVQLVESGGGLVQAGGSLRLSCAASGRTFVRYAMGWYRQAPGKERELVARITSSGGSTYYADSVKGRFTISRDNAKNTVYLQMNSLKPEDTAVYYCAKDTAFYRFQGHYGYWGQGTQVTVSS,high polyreactivity
12,QVQLVESGGGLVQAGGSLRLSCAASGFLFYYNAMGWYRQAPGKERELVATSTSGGSTNYADSVKGRFTISRDNAKNTVYLQMNSLKPEDTAVYYCAAGHSWVYGYDYWGQGTQVTVSS,low polyreactivity
13,QVQLVESGGGLVQAGGSLRLSCAASGSTFGLYAMGWYRQAPGKERELVAAITGRASSTYYADSVKGRFTISRDNAKNTVYLQMNSLKPEDTAVYDCAASGFGQISNPRRDYWGQGTQVTVSS,high polyreactivity
14,QVQLVESGGGLVQAGGSLRLSCAASGGTFLFYGMGWYRQAPGKERELVAVITWSGGSTYYADSVKGRFTISRDNAKNTVYLQMNSLKPEDTAVYYCNAANTGSPDYQSIGYNFNYWGQGTQVTVSS,low polyreactivity
15,QVQLVESGGGLVQAGGSLRLSCAASGITIGRYAMGWYRQAPGKERELVAAISSTGGRTYYADSVKGRFTISRDNAKNTVYLQMNSLKPEDTAVYYCAKKFAVFVSGYGYWGQGTQVTVSS,high polyreactivity
16,QVQLVESGGGLVQAGGSLRLSCAASGSIFPLNAMGWYRQSPGKERELVATISWRGGITYYADSVKGRFTISRDNAKNTVYLQMNSLKPEDTAVYYCATVGRWNSLWYRYRYDYWGQGTQVTVSS,low polyreactivity

row,Sequence,polyreactivity (PSR sort gate)
1,QVQRVASGGGLVQAGGSLRLSWAASGSIVVRYTMGWYRQAPGKERELVAGISSRGGSTYYADSVKGRFTISRDNAKNTVSLQLNSLTPEDTAVYYCAKERSYSRSGGTYYYWGQRTQVTVSS,high polyreactivity
2,QVQLVESGGGLVQAGGSLRLSCAASGSTFSYYDMGWYRQAPGKERELVAAISWNGGTTYYADSVKGRFTISRDNAKNTVYLQMNSLKPEDTAVYYCAATWDFYWAPDDSWGQGTQVTVSS,low polyreactivity
3,QVQLVESGGLLVKAGGSLRLSCAASGSIFYLYVMGWYRQAPGIERELVAANTWSGGSTYYADSVKGRFTISRDNAKNTVYLQMNILIPEDTAVYYCAARGYVPYVKYDYWGQGTQVTVSS,high polyreactivity
4,QVQLVDSGGGLVQAGGSLRLSCAASGSTFKYYAMGWYRQAPGKERELVAAISGRGGRTYYADSVKGRFTISRDHAKNTVYLQMNSLKPEDTAVYYCNAPFLGAHHYGYEYWGQGTQVTVSS,high polyreactivity
5,QVHLVESGGGLVQAGGSLRLSCAASGSILLINAMGWYRQAPGKERELVAAIRTGGSTYYADSVKGRFTISRDNAKNTVSLQMNSLKPEDTAVYYCAVRTGRRWWKFDYWGQGTQVTVSS,low polyreactivity
6,QVQLVESGGGLVQAGGRLRLSCAASGSIFPYYAMGWDRQAPGKERELVASINQSDGTRYYADSVKGRFTISRDNAKNTVYLQMNSLKPEDTAVYYCAADTTLQAFIRYRPMGSYDSWGQGTQVTVSS,low polyreactivity
7,QVQLVESGGGLVQAGGSLRLSCAASGSTFGGNAMGWYRQAPGKERELVAVISKRGGSTYYADSVKGRFTISRDNAKNTVYLQMNSLKPEDTAVYYCAAGYFIRTRSRYRYDYWGQGTQVTVSS,high polyreactivity
8,QVQLVESGGGLVQAGGSLRLSCAASGSIFVPYAMGWYRQEPGKERELVAAISRRGGRTNYADSVKGRFTISRDNAKNTVYLQMNSLKPEDTAVYYCADGWRGVYYTRYDSWGQGTQVTVSS,high polyreactivity
9,QVQLVESGGGLVQAGGSLRLSCAASGFTFPYNAMGWYSQARGKERELVAAISRSGTRTYYADSVKGRFTISRDNAKNTVYLQMNSLKPEDTAVYYCNARAAGYSRRGPGFDYWGQGTQVTVSS,high polyreactivity
10,QVQLVESGGGLVQAGGSLRLSCAASGRTFGYYAMGWYRQAPGTERELVASISSRGGSSYYADSVKGRFTISRDNAKNTVYLQMNSLKPEDTAVYYCNAPSWSGSRTYYYWGQGTQVTVSS,high polyreactivity
11,QLQLVESGGGLVQAGGSLRLSCAASGSTFLYNAMGWYRQAPGKERELVAAITVSDGSTYYADSVKGRFTISRDNAKNTVYLKMNSLKPVDTAVYYCNADFPRKTRYEYWGQGTQVTVSS,low polyreactivity
12,QVQLVESGGGLVQAGGSLRLSCAASGRIFSRNAMGWYRQAPGKERELVAAITWRGGSTYYADSVKGRFTISRDNAKNTVYLQMNSLKPEDTAVYYCNRDYRQYGYAYSGRYYWGQGTQVTVSS,high polyreactivity
13,QVQLVESGGGLVHAGGILSLSSAASGFTIGYYSMGWYRQAPGKERELVAAINWSGGRTYYGDSVKGRFTISRDIAKNTVYFQMTSLKPEDTAVYYCAADPNKGRQMYYWGQGSQVTVSS,high polyreactivity
14,QVQLVESGGGLVQAGGSLRLICAASGSIFDRYVMGWYRQAPGKERELVAAITTSGDGTYYADSVKGRFTISRDNAKNTVYLQMNSLKPEDTAVYYCAAVRRSWKYSTSDYWGQGTQVTVSS,low polyreactivity
15,QVQLVESGGGLVQAGGSLRISCAASGSTFYRNAMGWYRQAPGKERELVARISSRGGRTSYADSVKGRFTISRDNAKNNVYFQMNSLKPEDTAVYYCAADYYVNRIQRYDYWGQGTQVTVSS,high polyreactivity
